In the supplement of paper PMC9170038:

System: MS2 coat protein
Assay: apparent KD of MS2 coat protein; designed switch direction (-1 OFF switch, 1 ON switch): -1; higher = weaker reporter binding
Summary of the method: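 Three titration conditions were used: no input, 200 uM small-molecule ligand, and an oligonucleotide input. In each, SNAP-549-labelled MS2 coat protein was raised from 0.7 or 1.5 nM, doubling, to 3 µM over designed RNA switches transcribed on Illumina chips by stalled E. coli RNA polymerase. Curve fits of normalised cluster fluorescence gave values whose per-design median over clusters is the apparent KD.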

[1] = Eterna round: R95, input ligand: microRNA oligo, concentration not stated
[2] = Eterna round: R95, input ligand: FMN 200 uM
[3] = Eterna round: R95, input ligand: none
[4] = input ligand: microRNA oligo, concentration not stated

Row | Sequence | apparent KD of MS2 coat protein (input ligand: FMN 200 uM) [nM] | apparent KD of MS2 coat protein (input ligand: none) [nM] | apparent KD of MS2 coat protein [4] [nM] | further results
1 | AGAUGGCGAGGAUAUACAUGAGGAUCACCCAUGUGAAGAAGAAUAGUGAGGAAGAAAAGUAGAAGGCGCUGUCA [Mat - Exclusion 3 - Mod of Salish D32] (puzzle: Exclusion 3) |  |  |  | apparent KD of MS2 coat protein [1]: 49.4 nM
2 | AGAUGGCGAGGAUAUACAUGAGGAUCACCCAUGUGAAGAUAAUAAGUGAGGAAGAAAAGUAGAAGGCGCUGUCA [Mat - Exclusion 3 - Mod of Salish D26] (puzzle: Exclusion 3) |  |  |  | apparent KD of MS2 coat protein [2]: 398 nM; apparent KD of MS2 coat protein [1]: 72.6 nM; apparent KD of MS2 coat protein [3]: 70.4 nM
3 | AGAUGUAGAUACCGAUCCUACAUGAGGAUCACCCAUGUAGCUAGACGUGCGCGCGUCGCUCGUCAGACUACCAGUAG [salish99_TOv1_r3_092] (puzzle: Sensor v3, turn-off variant 1) |  |  |  | apparent KD of MS2 coat protein [2]: 330 nM; apparent KD of MS2 coat protein [1]: 296 nM; apparent KD of MS2 coat protein [3]: 157 nM
4 | AGAUGUAGAUGCCGAUCCUACAUGAGGAUCACCCAUGUAGCUAGACGUGCGGGCGGCGCUCGUCGGACUACCAGUAG [salish99_TOv1_r3_097] (puzzle: Sensor v3, turn-off variant 1) |  |  |  | apparent KD of MS2 coat protein [2]: 78.8 nM; apparent KD of MS2 coat protein [1]: 82.4 nM; apparent KD of MS2 coat protein [3]: 124 nM
5 | AGAUUAAAAGUAAGGAUAUGCUUCCGGAAACGGAGGCAGAAGGUACAUGAGGAUCACCCAUGUUAAACUAAUUU [Explosion 5 - Jieux - Brourd's mod of Exclusion 4] (Eterna round: R97, puzzle: Brourd's mod of Exclusion 4) | 21.2 | 15.3 |  | 
6 | AGAUUGAAUGAGGAUAUCGUUGCGGGUACGUAGCGAGAAGGCAUGACAUGAGGAUCACCCAUGUAGUGUGGGUU [JR_Ex6_Sub019] (Eterna round: R97, puzzle: Exclusion 6) | 805 | 336 |  | 
7 | AGAUUGCAUGAGGAUAUCGUAUUAGAUAUAAUGCGAGAAGGCAUGACAUGAGGAUCACCCAUGUAGUGUUGGGA [JR_Ex6_Sub012] (Eterna round: R97, puzzle: Exclusion 6) | 75.1 | 52.6 |  | 
8 | AGCAAGCUUUAAAGAUCCUACAUGAGGAUCACCCAUGUGCUCGUCUUAUAACGUACUGUGACGAAAGUCACGGUACG [JL TOV1 3.33] (Eterna round: R97, puzzle: Sensor, turn-off variant 1) | 357 | 603 |  | 
9 | AGCAAGCUUUUAAGAUCCUACAUGAGGAUCACCCAUGUGCUCGUCUUAUAACGUACUGUGACGAAAGUCACGGUACG [JL TOV1 3.32] (Eterna round: R97, puzzle: Sensor, turn-off variant 1) | 253 | 217 |  | 
10 | AGCAUCUGAGGAUAUACUGGGUAUGGAAGGCGAAGGGCCAGACAUGAGGAUCACCCAUGUAGAAGGCAGUUUGC [Esenonan] (Eterna round: R96, puzzle: Exclusion 2) | 39.2 | 65.4 | 42 | 
11 | AGCAUCUGAGGAUAUACUGGGUAUGGAAGGCGAAGGGCCAGACAUGAGGAUCACCCAUGUAGAAGGCAGUUUGC [Esenonan] (puzzle: Exclusion 2) |  |  |  | apparent KD of MS2 coat protein [1]: 78.4 nM
12 | AGCAUGAGAGAGGAUAUGGUCGCCGCAACAUGACCAGAAGGCUCAACAUGAGGAUCACCCAUGUGGCCCGGCUC [Eternabot (L1) Solution 33] (Eterna round: R97, puzzle: Exclusion 6) | 33.2 | 19.5 |  | 
13 | AGCCACAGAGGAUAUACAUACAUCCAGUAGCGUAUAUCGCUACAUGAGGAUCACCCAUGUAGAAGGCUGUGGCA [Omei Ex2 BD B23] (Eterna round: R97, puzzle: Exclusion 2) | 86.7 | 18.4 |  | 
14 | AGCCUACAUGAGGAUCACCCAUGUCAGGAUAUCUCGCAACGUGUCAAGUUCACGUCGCAGAGAAGGGACUCGGG [Tienberi] (puzzle: Exclusion 1) |  |  |  | apparent KD of MS2 coat protein [1]: 51.9 nM
15 | AGCGAGGCAGGAUAUACAUGAGGAUCACCCAUGUGCUUGCAUGGCGUGGGACGUCGAGGUAGAAGGGCCAUGCC [EX3 #70] (Eterna round: R97, puzzle: Exclusion 3) | 87.3 | 52.1 |  | 
16 | AGCGCCAUCGUGAGAUGGCGUAUUACAUGAGGAUCACCCAUGUAGGAUAUCGAUUGCUUUGCAGUCGAGAAGGACAUGUCCUAG [JL ENG3 3.80 Mod F] (Eterna round: R96, puzzle: Exclusion NG 3) | 38.3 | 27.9 | 23.4 | 

Row | Sequence | apparent KD of MS2 coat protein (input ligand: FMN 200 uM) [nM] | apparent KD of MS2 coat protein (input ligand: none) [nM] | apparent KD of MS2 coat protein [4] [nM] | further results
17 | AGCGUGUGAGAAGGAUAUCGACCCGAGACAGAUUGAGAAGGUCUCACAUGAGGAUCACCCAUGUGGACAGGGCGAGCUCCAGUC [Eternabot solution 11] (Eterna round: R96, puzzle: Exclusion NG 1) | 28.3 | 23.4 | 14.6 | 
18 | AGCUAAAUAGGAUAUGCCCGGGAUAACAUGAGGAUCACCCAUGUGACCGAUUCAUGUCCUGCAGAAGGAUUUGGGA [Mod of ViennaUCT 5 - Jieux - Exclusion 5] (Eterna round: R97, puzzle: Exclusion 5) | 17 | 13 |  | 
19 | AGCUAGUCAGGAUAUACGAACAUGUCAAAAGACGUGAAGGGACAUGAGGAUCACCCAUGUAGAAGGGACUAGCC [salish99-Ex2-17] (Eterna round: R96, puzzle: Exclusion 2) |  |  | 23.8 | 
20 | AGCUCACAUGAGGAUCACCCAUGUCAGGAUAUCGACUGAACAGCUUCGGCUGUUCAGUCGAGAAGGGACAAUUA [Brourdxlusion 5 - Jieux - Exclusion 1] (Eterna round: R97, puzzle: Exclusion 1) | 182 | 59.7 |  | 
21 | AGCUGUGGCCGAGGAUAUACAAUAACGAUGAGUGGAUUACACUCUUCGACAUGAGGAUCACCCAUGUAGAAGGCGGUCUCAGCA [Eli eng2 - 001] (Eterna round: R96, puzzle: Exclusion NG 2) | 41.3 | 18 | 14.6 | 
22 | AGCUGUGGCCGAGGAUAUCACGACCGAUGGAAAACCAUCGGAACUCCACAUGAGGAUCACCCAUGUGAGAAGGCGGUCUCAGCA [Eli eng2 - 028] (Eterna round: R96, puzzle: Exclusion NG 2) | 27.3 | 13.4 | 10.2 | 
23 | AGCUGUGGCCGAGGAUAUCUAAUAUCCCUAACCGAAAUAUAAUCGGACAUGAGGAUCACCCAUGUAGAGAAGGCGGUCUCAGCA [Eli eng2 - 065] (Eterna round: R96, puzzle: Exclusion NG 2) | 211 | 20.8 | 19.3 | 
24 | AGCUGUGGCCGAGGAUAUCUACUAAUCCAAACCGAAAUAUAAUCGGACAUGAGGAUCACCCAUGUAGAGAAGGCGGUCUCAGCA [Eli eng2 - 076] (Eterna round: R96, puzzle: Exclusion NG 2) |  |  | 199 | 
25 | AGCUGUGGCCGAGGAUAUCUAUCUCAAAUAACCGAAAUAUAAUCGGACAUGAGGAUCACCCAUGUAGAGAAGGCGGUCUCAGCA [Eli eng2 - 089] (Eterna round: R96, puzzle: Exclusion NG 2) |  |  | 11.4 | 
26 | AGCUGUGGCCGAGGAUAUCUGUUCCAUAAAACCGAAAUAUAAUCGGACAUGAGGAUCACCCAUGUAGAGAAGGCGGUCUCAGCA [Eli eng2 - 099] (Eterna round: R96, puzzle: Exclusion NG 2) |  |  | 18.3 | 
27 | AGCUGUGGCCGAGGAUAUGACAUGAGGAUCACCCAUGUACAUGAUUAGGCCUGGUAACAGGCUCGUCAGAAGGCGGUCUCAGCA [Eli eng2 - 009] (Eterna round: R96, puzzle: Exclusion NG 2) | 46.2 | 15.9 | 13.6 | 
28 | AGGAUGUGAGGAUAUCCAUCCCGCGAAUGCGGGUAAUAAAUGGAGAAGGCACAUGAGGAUCACCCAUGUGAUGA [Laleatus] (Eterna round: R97, puzzle: Exclusion 4) | 978 | 47.8 |  | 
29 | AGGAUGUUAGGAUAUCGGAUAUGCUGGAGGAGGUGGAUUUACGAGAAGGAACAUGAGGAUCACCCAUGUUGGAG [JR_Exclu4_Sub047] (puzzle: Exclusion 4) |  |  |  | apparent KD of MS2 coat protein [1]: 20.9 nM
30 | AGGCAGCAAGGAUAUACAUAAUUCCUACAAGUCAGCAUAGGACAUGAGGAUCACCCAUGUAGAAGGUGCAAAGA [Soesquma] (puzzle: Exclusion 2) |  |  |  | apparent KD of MS2 coat protein [1]: 24.5 nM
31 | AGGCGUGCUGAGGAUAUACUACCGGUUGCGAUAGUAGAAGGUAGCACAUGAGGAUCACCCAUGUGGUCAGAUGC [Bequte] (puzzle: Exclusion 6) |  |  |  | apparent KD of MS2 coat protein [1]: 19.1 nM
32 | AGGGAGCGAGGAUAUACAGAGUAAGAAACUACUCCCUCAGUACAUGAGGAUCACCCAUGUAGAAGGCGCCCGAC [EX2 A.2] (Eterna round: R97, puzzle: Exclusion 2) | 33.7 | 20.9 |  | 
